From patent US20210275669A1 come the findings set out here.

The target of assay [1] is CTLA-4 on PATHHUNTER CTLA4 Jurkat cells, P16410. Description: cell-based or functional assay.
In assay [2] the target is PD-1 on PATHHUNTER PD-1 Jurkat cells, Q15116. The experiment in a line: cell-based or functional assay.
Chain of PD-1 on PATHHUNTER PD-1 Jurkat cells, Q15116 (Q15116 25-288 limits assumed): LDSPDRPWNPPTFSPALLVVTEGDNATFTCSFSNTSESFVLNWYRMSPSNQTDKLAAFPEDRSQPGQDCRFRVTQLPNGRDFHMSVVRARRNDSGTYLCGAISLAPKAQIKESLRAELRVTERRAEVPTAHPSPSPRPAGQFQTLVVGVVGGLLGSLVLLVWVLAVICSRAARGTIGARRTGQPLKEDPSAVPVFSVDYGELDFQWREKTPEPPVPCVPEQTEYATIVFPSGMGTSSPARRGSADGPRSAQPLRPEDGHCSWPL

Chain of CTLA-4 on PATHHUNTER CTLA4 Jurkat cells, P16410 (P16410 36-223 limits assumed): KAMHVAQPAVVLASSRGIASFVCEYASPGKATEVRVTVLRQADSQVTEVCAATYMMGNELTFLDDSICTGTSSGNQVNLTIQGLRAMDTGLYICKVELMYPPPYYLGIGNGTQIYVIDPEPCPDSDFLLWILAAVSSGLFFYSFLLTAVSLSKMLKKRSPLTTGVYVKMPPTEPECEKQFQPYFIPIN

B1: peptide LD01 (peptide)
peptide: CRRTSTGQISTLRVNITAPLSQ
modifications: not checked
In assay [1], B1 yielded a % inhibition (PATHHUNTER CTLA4 assay; 100 µM; Study 2) of 51%, a % inhibition (PATHHUNTER CTLA4 assay; 100 µM; Study 4) of 16% and a % inhibition (PATHHUNTER CTLA4 assay; 100 µM; Study 6) of 46%. In assay [2], this molecule displayed a % inhibition (PATHHUNTER PD-1 assay; 100 µM; Study 1) of 50.5%, a % inhibition (PATHHUNTER PD-1 assay; 100 µM; Study 2) of 79%, a % inhibition (PATHHUNTER PD-1 assay; 100 µM; Study 4) of 65% and a % inhibition (PATHHUNTER PD-1 assay; 100 µM; Study 5) of 24%. The molecule further gave a % inhibition (PATHHUNTER PD-1 assay; 100 µM; Study 6) in assay [2] of 83%.
